Data taken from US20090130105A1.

Target: All other mutant IGF-1R constructs
Experiment: SPR, Fab over captured mutant hIGF-1R-Fc; all of SD001-SD019 other than SD015

B1: M14-C03 Fab (Fab, V domains shown)
VH: EVQLLESGGGLVQPGGSLRLSCAASGFTFSKYMMSWVRQAPGKGLEWVSYISPSGGLTWYADSVKGRFTISRDNSKNTLYLQMNSLRAEDTAVYYCARDGARGYGMDVWGQGTTVTVSS
VL: DIQMTQSPATLSLSPGERATLSCRASQSVSSYLAWYQQKPGQAPRLLIYDASNRATGIPARFSGSGSGTDFTLTISSLEPEDFAVYYCQQRSNWPPEVTFGPGTKVDIK
Kd: 5 nM

B2: M13-C06 Fab (Fab, V domains shown)
VH: EVQLLESGGGLVQPGGSLRLSCAASGFTFSIYRMQWVRQAPGKGLEWVSGISPSGGTTWYADSVKGRFTISRDNSKNTLYLQMNSLRAEDTAVYYCARWSGGSGYAFDIWGQGTMVTVSS
VL: DIQMTQSPLSLSASVGDRVTITCQASRDIRNYLNWYQQKPGKAPKLLIYDASSLQTGVPSRFGGSGSGTDFSFTIGSLQPEDIATYYCQQFDSLPHTFGQGTKLEIK
Kd: 1 nM
